The target in experiment [1] is T1, Recombinant Human Dkk-1 (human, UniProt O94907 32-266).
T1 construct: also called DKK-1/His
T1 sequence (looked up): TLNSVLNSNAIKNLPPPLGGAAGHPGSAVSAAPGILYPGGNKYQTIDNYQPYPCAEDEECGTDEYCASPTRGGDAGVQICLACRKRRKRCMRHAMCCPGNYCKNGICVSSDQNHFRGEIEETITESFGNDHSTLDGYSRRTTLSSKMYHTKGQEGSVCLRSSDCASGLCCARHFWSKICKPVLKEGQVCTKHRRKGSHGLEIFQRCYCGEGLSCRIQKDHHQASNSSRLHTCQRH
Description: Biacore SPR. On the procedure: (§1) The BIACORE assay (Biacore, Inc, Piscataway, N.J.) determines the affinity of antibodies or DVD-Ig with kinetic measurements of on-rate and off-rate constants. Binding of antibodies or DVD-Ig to a target antigen (for example, a purified recombinant target antigen) is determined by surface plasmon resonance-based measurements with a BiacoreR 1000 or 3000 instrument (Biacore® AB, Uppsala, Sweden) using running HBS-EP (10 mM HEPES [pH 7.4], 150 mM NaCl, 3 mM EDTA, and 0.005% surfactant P20) at 25° C. All chemicals are obtained from Biacore® AB (Uppsala, Sweden) or otherwise from a different source as described in the text. For example, approximately 5000 RU of goat anti-mouse IgG, (Fcγ), fragment specific polyclonal antibody (Pierce Biotechnology Inc, Rockford, Ill.) diluted in 10 mM sodium acetate (pH 4.5) is directly immobilized across a CM5 research grade biosensor chip using a standard amine coupling kit according to manufacturer's instructions and procedures at 25 μg/ml. Unreacted moieties on the biosensor surface are blocked with ethanolamine. Modified carboxymethyl dextran surface in flowcell 2 and 4 is used as a reaction surface. Unmodified carboxymethyl dextran without goat anti-mouse IgG in flow cell 1 and 3 is used as the reference surface. For kinetic analysis, rate equations derived from the 1:1 Langmuir binding model are fitted simultaneously to association and dissociation phases of all eight injections (using global fit analysis) with the use of Biaevaluation 4.0.1 software. Purified antibodies or DVD-Ig are diluted in HEPES-buffered saline for capture across goat anti-mouse IgG specific reaction surfaces. Antibodies or DVD-Ig to be captured as a ligand (25 μg/ml) are injected over reaction matrices at a flow rate of 5 μl/min. The association and dissociation rate constants, kₒₙ (M⁻¹s⁻¹) and koff (s⁻¹) are determined under a continuous flow rate of 25 μl/min. Rate constants are derived by making kinetic binding measurements at different antigen concentrations ranging from […]. The equilibrium dissociation constant (M) of the reaction between antibodies or DVD-Igs and the target antigen is then calculated from the kinetic rate constants by the following formula: KD=koff/kₒₙ. Binding is recorded as a function of time and kinetic rate constants are calculated.
(In SPR one partner is held on a chip, and binding of the other changes the refractive index at the surface.)

Experiment [2] has as its target T1, Recombinant Human Dkk-1. Description: direct bind ELISA. How it is done:
(§2) Enzyme Linked Immunosorbent Assays to screen for antibodies that bind a desired target antigen were performed as follows. High bind ELISA plates (Corning Costar # 3369, Acton, Mass.) were coated with 100 μL/well of 10 μg/ml of desired target antigen (R&D Systems, Minneapolis, Minn.) or desired target antigen extra-cellular domain/FC fusion protein (R&D Systems, Minneapolis, Minn.) or monoclonal mouse anti-polyhistidine antibody (R&D Systems # MAB050, Minneapolis, Minn.) in phosphate buffered saline (10×PBS, Abbott Bioresearch Center, Media Prep# MPS-073, Worcester, Mass.) overnight at 4° C. Plates were washed four times with PBS containing 0.02% Tween 20. Plates were blocked by the addition of 300 μL/well blocking solution (non-fat dry milk powder, various retail suppliers, diluted to 2% in PBS) for ½ hour at room temperature. Plates were washed four times after blocking with PBS containing 0.02% Tween 20.
(§3) Plates were washed 4 times with PBS containing 0.02% Tween 20.
(§4) One hundred microliters of enhanced TMB solution (Neogen Corp. #308177, K Blue, Lexington, Ky.) was added to each well and incubated for 10 minutes at room temperature. The reaction was stopped by the addition of 50 μL 1N sulphuric acid. Plates were read spectrophotometrically at a wavelength of 450 nm.

Experiment [3] addresses T2, Recombinant Human SOST (human, UniProt Q9BQB4 24-213).
T2 construct: also called SOST/His; Sclerostin
T2 sequence (looked up): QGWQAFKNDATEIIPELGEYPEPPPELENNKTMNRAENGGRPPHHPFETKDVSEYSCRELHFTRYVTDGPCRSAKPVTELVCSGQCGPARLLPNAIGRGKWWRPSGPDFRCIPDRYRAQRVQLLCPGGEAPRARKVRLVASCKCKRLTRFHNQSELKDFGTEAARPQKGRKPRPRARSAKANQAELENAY
Briefly: Biacore SPR. How it is done: as §1

The target of experiment [4] is T2, Recombinant Human SOST. Description: direct bind ELISA. On the procedure: as §2, §3, §4
In general terms: ELISA stands for enzyme-linked immunosorbent assay.

The target in experiment [5] is T3, Recombinant Human VEGF (human, UniProt P15692-4 27-191).
T3 construct: also called VEGF165
Description: Biacore SPR. On the procedure: as §1

In experiment [6] the target is T4, Recombinant Human IL-1β (human, UniProt P01584 117-269).
T4 construct: also called IL-1b; IL-1B
Description: Biacore SPR. How it is done: as §1

The target in experiment [7] is T3, Recombinant Human VEGF. Description: direct bind ELISA. On the procedure:
as §2, §3, §4

The target in experiment [8] is T4, Recombinant Human IL-1β. Description: direct bind ELISA. How it is done:
as §2, §3, §4

Experiment [9] deals with T4, Recombinant Human IL-1β. Briefly: cell-based or functional assay.
The target in experiment [10] is T5, Recombinant Human β-NGF (human, UniProt P01138 122-241). Briefly: Biacore SPR. On the procedure: as §1
T5 sequence (P01138 122-241 limits assumed): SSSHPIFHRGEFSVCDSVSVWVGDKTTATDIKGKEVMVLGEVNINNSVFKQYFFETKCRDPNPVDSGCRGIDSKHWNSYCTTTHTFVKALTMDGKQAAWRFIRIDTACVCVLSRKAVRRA
In experiment [11] the target is T5, Recombinant Human β-NGF. Briefly: direct bind ELISA. On the procedure:
as §2, §3, §4

Another experiment has as its target T6, CD20 on cells (UniProt P11836 1-297, limits assumed).
T6 construct: whole, on cells
T6 sequence (looked up): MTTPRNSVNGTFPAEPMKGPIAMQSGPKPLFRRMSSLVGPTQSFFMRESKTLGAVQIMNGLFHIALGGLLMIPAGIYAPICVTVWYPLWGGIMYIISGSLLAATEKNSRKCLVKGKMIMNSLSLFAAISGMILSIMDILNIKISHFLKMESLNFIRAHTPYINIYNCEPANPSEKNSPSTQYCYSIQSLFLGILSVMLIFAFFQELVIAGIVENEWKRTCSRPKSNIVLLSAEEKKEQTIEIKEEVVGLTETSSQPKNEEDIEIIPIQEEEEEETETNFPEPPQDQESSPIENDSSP
Briefly: flow cytometry on cells, 2 µg/mL. On the procedure: Stable cell lines overexpressing a cell-surface antigen of interest or human tumor cell lines were harvested from tissue culture flasks and resuspended in phosphate buffered saline (PBS) containing 5% fetal bovine serum (PBS/FBS). Prior to staining, human tumor cells were incubated on ice with (100 μl) human IgG at 5 μg/ml in PBS/FCS. 1−5×10⁵ cells were incubated with antibody or DVD-Ig (2 μg/mL) in PBS/FBS for 30-60 minutes on ice. […] After 30 minutes incubation on ice, cells were washed twice and resuspended in PBS/FBS. Fluorescence was measured using a Becton Dickinson FACSCalibur (Becton Dickinson, San Jose, Calif.).
The geometric mean is the n root of the multiplication product of n fluorescent signals (a1×a2×a3 . . . an). With log-transformed data the geometric mean is used to normalize the weighting of the data distribution.
In general terms: Flow cytometry measures light scatter and fluorescence of single cells or particles in a stream.

Experiment [12] concerns the target T7, Recombinant Human TRANCE/RANKL/TNFSF 11 (human, UniProt O14788 69-317).
T7 construct: extracellular domain
T7 sequence (looked up): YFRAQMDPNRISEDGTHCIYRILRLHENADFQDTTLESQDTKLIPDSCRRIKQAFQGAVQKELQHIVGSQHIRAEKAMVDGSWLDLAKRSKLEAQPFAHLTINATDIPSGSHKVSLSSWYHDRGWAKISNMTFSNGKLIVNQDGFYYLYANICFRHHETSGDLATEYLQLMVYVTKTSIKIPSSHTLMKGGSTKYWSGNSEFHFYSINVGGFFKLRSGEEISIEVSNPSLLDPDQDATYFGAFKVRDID
Briefly: direct bind ELISA. On the procedure: as §2, §3, §4

Experimental findings from US20090311253A1 (AbbVie / Abbott, published 2009) are described below.

B1: AB023 (antibody, human IgG1, kappa, V domains shown)
VH: EVQLVESGGGLVQPANSLKLSCAASGFTFSDYAMAWVRQSPKKGLEWVATIIYDGSSTYYRDSVKGRFTISRDNAKSTLYLQMDSLRSEDTATYYCATGLGIATDYFDYWGQGVLVTVSS
VL: DIRMTQSPASLSASLGETVNIECLASEDIYSDLAWYQQKPGKSPQLLIYNANSLQNGVPSRFSGSGSGTQYSLKINSLQSEDVATYFCQQYNNYPPTFGGGTKLELKR
notes: vectors V1 and V2; also called anti-DKK parent antibody
Turning to B1, in the experiment with Recombinant Human Dkk-1 [1], the Kd was < 0.0087 nM, the koff amounted to 8.7e-05 s⁻¹ and the kon is > 1e+07 M⁻¹ s⁻¹. For the same molecule, the EC50 with Recombinant Human Dkk-1 [2] worked out at 6.83 nM.

B2: AB022 (antibody, human IgG1, kappa, V domains shown)
VH: EVQLQQSGPELVTPGASVKISCKASGYTFTDHYMSWVKQSHGKSLEWIGDINPYSGETTYNQKFKGTATLTVDKSSSIAYMEIRGLTSEDSAVYYCARDDYDASPFAYWGQGTLVTVSA
VL: DVQMIQSPSSLSASLGDIVTMTCQASQGTSINLNWFQQKPGKAPKLLIYGSSNLEDGVPSRFSGSRYGTDFTLTISSLEDEDLATYFCLQHSYLPYTFGGGTKLEIKR
notes: vectors V1 and V2
For the molecule B2, in the experiment with Recombinant Human SOST [3], the Kd came out at 0.0379 nM, the koff was 2.44e-05 s⁻¹ and the kon turned out to be 642000 M⁻¹ s⁻¹. In addition, the EC50 with Recombinant Human SOST [4] came to 0.66 nM.

B3: DVD124 (bispecific antibody, human IgG1, kappa)
heavy: not shown
light: DIQMTQSPSSLSASVGDRVTITCSASQDISNYLNWYQQKPGKAPKVLIYFTSSLHSGVPSRFSGSGSGTDFTLTISSLQPEDFATYYCQQYSTVPWTFGQGTKVEIKRTVAAPEIVLTQSPDFQSVTPKEKVTITCRASQSIGSSLHWYQQKPDQSPKLLIKYASQSFSGVPSRFSGSGSGTDFTLTINSLEAEDAAAYYCHQSSSLPFTFGPGTKVDIKRTVAAPSVFIFPPSDEQLKSGTASVVCLLNNFYPREAKVQWKVDNALQSGNSQESVTEQDSKDSTYSLSSTLTLSKADYEKHKVYACEVTHQGLSSPVTKSFNRGEC
notes: outer AB014, inner AB032; vectors V1, V2
With B3, in the experiment with Recombinant Human VEGF [5], the dissociation constant Kd was found to be 0.0467 nM, the koff was found to be 4.03e-05 s⁻¹ and the kon stood at 863000 M⁻¹ s⁻¹. Besides, in the experiment with Recombinant Human IL-1β [6], the Kd is 1.41 nM, the koff worked out at 9.32e-05 s⁻¹ and the on-rate constant (kon) is 66000 M⁻¹ s⁻¹. Moreover, in the experiment with Recombinant Human VEGF [7], the EC50 came out at 3.49 nM. For the same molecule, the EC50 in the experiment with Recombinant Human IL-1β [8] turned out to be 459 nM. The “IL-1β Neutralization Assay EC50 (MRC5 cells, hIL-8)” value in the experiment with Recombinant Human IL-1β [9] stood at 3.63 nM.

B4: AB020 (antibody, human IgG1, kappa, V domains shown)
VH: QVQLQESGPGLVKPSETLSLTCTVSGFSLIGYDLNWIRQPPGKGLEWIGIIWGDGTTDYNSAVKSRVTISKDTSKNQFSLKLSSVTAADTAVYYCARGGYWYATSYYFDYWGQGTLVTVSS
VL: DIQMTQSPSSLSASVGDRVTITCRASQSISNNLNWYQQKPGKAPKLLIYYTSRFHSGVPSRFSGSGSGTDFTFTISSLQPEDIATYYCQQEHTLPYTFGQGTKLEIKR
notes: vectors V1 and V2; also called anti-NGF parent antibody
In the case of B4, in the experiment with Recombinant Human β-NGF [10], the equilibrium dissociation constant (Kd) is < 0.000926 nM, the koff was < 1e-06 s⁻¹ and the kon was determined as 1.08e+06 M⁻¹ s⁻¹. Moreover, in the experiment with Recombinant Human β-NGF [11], the EC50 was determined as 9 nM.

B5: DVD165 (bispecific antibody, human IgG1, kappa)
heavy: not shown
light: QIVLSQSPAILSPSPGEKVTMTCRASSSVSYIHWFQQKPGSSPKPWIYATSNLASGVPVRFSGSGSGTSYSLTISRVEAEDAATYYCQQWTSNPPTFGGGTKLEIKRTVAAPEIVLTQSPGTLSLSPGERATLSCRASQSVRGRYLAWYQQKPGQAPRLLIYGASSRATGIPDRFSGSGSGTDFTLTISRLEPEDFAVFYCQQYGSSPRTFGQGTKVEIKRTVAAPSVFIFPPSDEQLKSGTASVVCLLNNFYPREAKVQWKVDNALQSGNSQESVTEQDSKDSTYSLSSTLTLSKADYEKHKVYACEVTHQGLSSPVTKSFNRGEC
notes: vectors V1, V2; also called CD-20 and RANKL DVD-Ig
As to B5, the “FACS Geometric Mean” value with CD20 on cells was determined as 1890. In [12], the EC50 is 0.32 nM.

B6: AB001 (antibody, human IgG1, kappa, V domains shown)
VH: QVQLQQPGAELVKPGASVKMSCKASGYTFTSYNMHWVKQTPGRGLEWIGAIYPGNGDTSYNQKFKGKATLTADKSSSTAYMQLSSLTSEDSAVYYCARSTYYGGDWYFNVWGAGTTVTVSA
VL: QIVLSQSPAILSPSPGEKVTMTCRASSSVSYIHWFQQKPGSSPKPWIYATSNLASGVPVRFSGSGSGTSYSLTISRVEAEDAATYYCQQWTSNPPTFGGGTKLEIKR
notes: vectors V1 (wild type hIgG1 constant) and V2 (kappa); also called anti-CD20 parent antibody
As for B6, the “FACS Geometric Mean” value with CD20 on cells was determined as 1350.

For orientation: Kd means the concentration at which binding is half-saturated. Broadly, the koff is the first-order rate constant of dissociation. For orientation: kon means the rate constant with which the complex forms. Broadly, the EC50 is the midpoint of the concentration-response curve.
